Experiments:
Assay in all cases: SPR; PBP1B versions immobilised to the chip surface; LpoB injected from 19.5 nM to 10 μM; apparent KD by non-linear regression, at least three independent experiments
Settings in all cases: both partners purified
[1] = target: T1, PBP1B N112G (E. coli, UniProt P02919 46-844, N112G)
T1 construct: PBP1B, E. coli, residues 46-844, made by mutagenesis of pDML924; source: E. coli BL21(DE3), purified (membrane extract, HisTrap, thrombin, HiTrap SP ion exchange)
T1 sequence (looked up): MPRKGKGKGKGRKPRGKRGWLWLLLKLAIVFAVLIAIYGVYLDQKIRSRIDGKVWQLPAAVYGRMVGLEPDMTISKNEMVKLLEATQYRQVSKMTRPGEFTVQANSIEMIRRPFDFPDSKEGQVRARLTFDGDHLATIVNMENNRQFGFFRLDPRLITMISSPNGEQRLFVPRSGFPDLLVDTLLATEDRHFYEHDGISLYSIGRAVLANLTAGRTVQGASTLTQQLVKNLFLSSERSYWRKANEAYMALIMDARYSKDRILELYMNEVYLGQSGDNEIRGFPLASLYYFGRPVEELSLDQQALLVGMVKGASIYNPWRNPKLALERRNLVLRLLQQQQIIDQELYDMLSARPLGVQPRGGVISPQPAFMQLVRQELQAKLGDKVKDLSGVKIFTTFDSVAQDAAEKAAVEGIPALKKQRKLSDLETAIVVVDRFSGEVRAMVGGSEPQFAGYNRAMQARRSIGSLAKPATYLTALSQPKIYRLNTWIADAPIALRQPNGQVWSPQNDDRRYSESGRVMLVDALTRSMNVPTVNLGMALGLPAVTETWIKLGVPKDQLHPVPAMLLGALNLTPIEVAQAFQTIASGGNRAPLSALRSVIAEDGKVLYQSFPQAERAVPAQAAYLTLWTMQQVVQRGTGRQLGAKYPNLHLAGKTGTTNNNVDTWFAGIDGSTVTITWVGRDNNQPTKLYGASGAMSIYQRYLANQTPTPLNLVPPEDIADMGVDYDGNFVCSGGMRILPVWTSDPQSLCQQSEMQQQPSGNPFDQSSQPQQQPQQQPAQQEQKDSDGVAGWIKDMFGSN

[2] = target: T2, PBP1B D443A (E. coli, UniProt P02919 46-844, D443A)
T2 construct: PBP1B, E. coli, residues 46-844, made by mutagenesis of pDML924; source: E. coli BL21(DE3), purified (membrane extract, HisTrap, thrombin, HiTrap SP ion exchange)
T2 sequence (looked up): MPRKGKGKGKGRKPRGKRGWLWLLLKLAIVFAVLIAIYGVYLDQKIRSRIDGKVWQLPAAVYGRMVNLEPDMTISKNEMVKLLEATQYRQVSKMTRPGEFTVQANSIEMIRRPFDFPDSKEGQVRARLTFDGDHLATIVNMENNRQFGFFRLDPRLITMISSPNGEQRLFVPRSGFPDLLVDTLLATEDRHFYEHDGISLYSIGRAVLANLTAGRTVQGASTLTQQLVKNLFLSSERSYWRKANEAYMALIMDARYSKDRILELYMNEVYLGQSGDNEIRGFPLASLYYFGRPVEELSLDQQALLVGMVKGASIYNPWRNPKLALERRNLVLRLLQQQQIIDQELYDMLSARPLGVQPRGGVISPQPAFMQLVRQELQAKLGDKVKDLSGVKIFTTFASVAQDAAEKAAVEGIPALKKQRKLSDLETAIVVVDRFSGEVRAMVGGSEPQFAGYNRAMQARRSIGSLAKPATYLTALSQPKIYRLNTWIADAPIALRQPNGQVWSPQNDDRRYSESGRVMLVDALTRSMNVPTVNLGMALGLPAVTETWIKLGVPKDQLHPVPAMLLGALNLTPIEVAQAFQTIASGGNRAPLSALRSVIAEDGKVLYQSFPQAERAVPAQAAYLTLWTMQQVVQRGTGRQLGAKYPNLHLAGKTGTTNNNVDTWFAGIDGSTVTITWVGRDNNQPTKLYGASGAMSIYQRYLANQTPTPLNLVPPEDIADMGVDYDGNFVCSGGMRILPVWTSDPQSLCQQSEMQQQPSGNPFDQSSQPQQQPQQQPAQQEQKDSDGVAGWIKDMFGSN

[3] = target: T3, PBP1B R109G (E. coli, UniProt P02919 46-844, R109G)
T3 construct: PBP1B, E. coli, residues 46-844, made by mutagenesis of pDML924; source: E. coli BL21(DE3), purified (membrane extract, HisTrap, thrombin, HiTrap SP ion exchange)
T3 sequence (looked up): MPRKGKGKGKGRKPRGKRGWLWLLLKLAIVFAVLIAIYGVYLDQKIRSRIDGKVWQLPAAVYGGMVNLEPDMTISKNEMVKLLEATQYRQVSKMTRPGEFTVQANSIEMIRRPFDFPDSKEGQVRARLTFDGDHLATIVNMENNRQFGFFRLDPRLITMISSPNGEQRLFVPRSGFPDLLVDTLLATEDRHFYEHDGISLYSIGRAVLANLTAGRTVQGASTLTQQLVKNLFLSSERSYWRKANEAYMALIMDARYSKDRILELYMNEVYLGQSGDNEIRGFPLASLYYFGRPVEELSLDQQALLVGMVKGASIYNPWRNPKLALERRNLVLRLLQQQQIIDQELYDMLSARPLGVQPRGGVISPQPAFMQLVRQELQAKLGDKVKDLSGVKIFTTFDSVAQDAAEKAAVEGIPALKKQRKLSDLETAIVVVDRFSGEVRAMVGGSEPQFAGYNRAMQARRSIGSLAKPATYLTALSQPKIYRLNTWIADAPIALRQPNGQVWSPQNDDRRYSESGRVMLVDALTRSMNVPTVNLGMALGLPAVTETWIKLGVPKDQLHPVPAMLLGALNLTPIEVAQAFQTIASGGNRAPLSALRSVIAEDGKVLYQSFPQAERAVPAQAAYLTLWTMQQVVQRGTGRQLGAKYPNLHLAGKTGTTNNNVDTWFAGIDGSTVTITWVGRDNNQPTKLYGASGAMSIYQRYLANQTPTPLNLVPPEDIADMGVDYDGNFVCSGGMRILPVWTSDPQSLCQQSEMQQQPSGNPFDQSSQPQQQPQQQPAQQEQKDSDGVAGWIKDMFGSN

Kd [1]: 356 nM | Kd [2]: 289 nM | Kd [3]: 3090 nM
B1: LpoB (natural protein, E. coli)
chain: VGQREPAPVEEVKPAPEQPAEPQQPVPTVPSVPTIPQQPGPIEHEDQTAPPAPHIRHYDWNGAMQPMVSKMLGADGVTAGSVLLVDSVNNRTNGSLNAAEATETLRNALANNGKFTLVSAQQLSMAKQQLGLSPQDSLGTRSKAIGIARNVGAHYVLYSSASGNVNAPTLQMQLMLVQTGEIIWSGKGAVSQQ
notes: LpoB, E. coli; also called lipoprotein LpoB; source: E. coli BL21(DE3), purified (HisTrap, Superdex 200), as in Egan et al. 2014
